Source: PMC12094035

Target: human γ-tubulin ring complex (γ-TuRC), the reconstituted complex without NEDD1 (human) (UniProt P23258)
Assay: cryo-EM structure; NEDD1-containing rec-γ-TuRC; free particles in micrographs of Aher et al. (2024), processed anew; consensus map 4.7 Å; model from AlphaFold 3 predictions fitted to the map and refined, side chains trimmed to β-carbons

neural precursor cell expressed, developmentally downregulated 1 (NEDD1), full length, in the reconstituted human γ-TuRC (from UniProt Q8NHV4 1-660) (natural protein)
stoichiometry N: 4
